The text below walks through data of PMC4715444, “A simple and rapid method for measuring α-D-phosphohexomutases activity by using anion-exchange chromatography coupled with an electrochemical detector” (PeerJ, 2016).

Substrate in the data set: O=P(O)(O)O[C@H]1O[C@H](CO)[C@@H](O)[C@H](O)[C@H]1O
The experiment in a line: HPAEC-PAD, direct detection of hexose phosphates. Format: biochemical, Arabidopsis thaliana. To be noted: 20 mM PBS pH 7.0, 10 mM MgSO4, 20 µM glucose-1,6-bisphosphate, 30 °C. The text has this:
HPAEC-PAD, direct detection of hexose phosphates on AtAGM

B1: AtAGM (Arabidopsis thaliana) (protein)
chain: MDEIQIASILKSSELFPIPQGVKLSYGTAGFRGDAKLLESTVYRVGILSALRSLKLGSATVGLMITASHNKVSDNGIKVSDPSGFMLSQEWEPFADQIANASSPEELVSLIRKFMEKEEIAIGENNKGAEVWLGRDTRPSGESLLRAGEIGVGSILGSVAIDIGILTTPQLHWMVRAKNKGLKATENDYFENLSTSFRCLIDLIPSSGNDKLEISKLLVDGANGVGGQKIEKLRGSLSNLDVEIRNTGRDGGVLNEGVGADFVQKEKVLPVGFGFKDVGMRCASLDGDADRLVYFYIPSDSSEKVELLDGDKILSLFALFIKEQLNALEDDEERKQSRLGVVQTAYANGASTDYLKHLGLDVVFAKTGVKHLHEKAAEFDIGIYFEANGHGTILFSESFLSWLVSKQKDLTAKGQGGSEEHKAVSRLMAVSNLINQAVGDALSGVLLVEVILQHLGWSIEKWNELYKDLPSRQIKVEVPDRTAVVTTSEETEALRPMGIQDAINSEIKKYSRGRAFIRPSGTEDVVRVYAEASTQEDADSLANSVAQLVKSFLGSS
As for B1, the Km was 679.18 ± 156.40 µM, the Vmax amounted to 0.137 µmol/min and the turnover number (kcat) was 40.4 s⁻¹.
